According to patent publication US20140186348A1 (NOVELMED THERAPEUTICS, published 2014):
Values belong to the binder of their own block, whether it stands above or below them.

How the values were obtained:
[1] = target: T1, human properdin (human, UniProt P27918 28-469); experiment: competition ELISA: varied antibody with 50 nM properdin on C3b-coated wells
T1 construct: also called antigen properdin

[2] = target: T1, human properdin; experiment: properdin ELISA (FIG. 27)
[3] = target: T1, human properdin; experiment: cell-based or functional assay
[4] = target: T1, human properdin; experiment: properdin ELISA

T1 sequence (P27918 28-469 limits assumed): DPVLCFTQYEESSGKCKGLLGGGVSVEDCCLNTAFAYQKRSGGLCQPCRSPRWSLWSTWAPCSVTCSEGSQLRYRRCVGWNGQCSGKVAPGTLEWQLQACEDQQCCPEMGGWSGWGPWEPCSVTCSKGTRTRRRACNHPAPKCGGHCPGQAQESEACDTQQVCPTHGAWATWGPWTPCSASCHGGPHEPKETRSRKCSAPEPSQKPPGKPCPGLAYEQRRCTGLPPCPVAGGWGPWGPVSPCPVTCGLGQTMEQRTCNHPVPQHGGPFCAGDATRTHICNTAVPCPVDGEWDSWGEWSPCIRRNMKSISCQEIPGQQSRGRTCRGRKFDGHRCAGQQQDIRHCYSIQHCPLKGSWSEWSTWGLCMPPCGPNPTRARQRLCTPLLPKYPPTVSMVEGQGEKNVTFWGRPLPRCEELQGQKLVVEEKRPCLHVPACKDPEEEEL

B1: NM9401-F(ab′)2 (other)
VH: QVQLQQSAPELARPGASVKMSCTASGYIFTNYPIHWVKQRPGQGLEWIGFIDPGGGYDEPDERFRDRATLTADKSSSTAYMQLSSLTSEDSAIYYCARRGGGYYLDYWGQGTTLTVSSAKTT
VL: DIQMTQTTSSLSASLGDRVTISCRASQDISFFLNWYQQKPDGTVKLLIYYTSRYHSGVPSRFSGSGSGTDFSLTINNLEQEDFATYFCQHGNTLPWTFGGGTKLEIKRADAAPTVSIFPPSSEQLTSGGASVVCFLNN
notes: F(ab′)2 fragment of the murine NM9401 IgG
concentration inhibiting properdin binding to C3b (quantity not named, IC50 implied) [1]: 29 nM
molar ratio of antibody to properdin [1]: 0.5

B3: NM9401-IgG (murine anti-properdin monoclonal antibody, IgG1) (antibody, V domains shown)
VH: QVQLQQSAPELARPGASVKMSCTASGYIFTNYPIHWVKQRPGQGLEWIGFIDPGGGYDEPDERFRDRATLTADKSSSTAYMQLSSLTSEDSAIYYCARRGGGYYLDYWGQGTTLTVSS
VL: DIQMTQTTSSLSASLGDRVTISCRASQDISFFLNWYQQKPDGTVKLLIYYTSRYHSGVPSRFSGSGSGTDFSLTINNLEQEDFATYFCQHGNTLPWTFGGGTKLEIKR
erythrocyte lysis assay using rabbit erythrocytes, IC50 [3]: 20 to 30 nM

B4: BAP010-1 (chimeric anti-properdin IgG1) (antibody, V domains shown)
VH: QVQLQQSAPELARPGASVKMSCTASGYIFTNYPIHWVKQRPGQGLEWIGFIDPGGGYDEPDERFRDRATLTADKSSSTAYMQLSSLTSEDSAIYYCARRGGGYYLDYWGQGTTLTVSS
VL: DIQMTQTTSSLSASLGDRVTISCRASQDISFFLNWYQQKPDGTVKLLIYYTSRYHSGVPSRFSGSGSGTDFSLTINNLEQEDFATYFCQHGNTLPWTFGGGTKLEIK
notes: Murine variable domains (heavy chain clone mH6-3g, light chain clone mK10) fused in frame to a human IgG1 constant region and a human kappa constant region; also called chimeric anti-properdin monoclonal antibody; recombinant antibody BAP010-1
Kd [4]: ~0.054 nM
erythrocyte lysis assay using rabbit erythrocytes, IC50 [3]: 20 to 30 nM

B5: NM9401-Fab (Fab, V domains shown)
VH: QVQLQQSAPELARPGASVKMSCTASGYIFTNYPIHWVKQRPGQGLEWIGFIDPGGGYDEPDERFRDRATLTADKSSSTAYMQLSSLTSEDSAIYYCARRGGGYYLDYWGQGTTLTVSS
VL: DIQMTQTTSSLSASLGDRVTISCRASQDISFFLNWYQQKPDGTVKLLIYYTSRYHSGVPSRFSGSGSGTDFSLTINNLEQEDFATYFCQHGNTLPWTFGGGTKLEIKR
notes: Fab fragment of the murine NM9401 IgG
concentration inhibiting properdin binding to C3b (quantity not named, IC50 implied) [1]: 72 nM
molar ratio of antibody to properdin [1]: 1.2

Second part, the binder after the results:

binding result [2]: binds
B2: BAP010hum02 (humanized anti-properdin monoclonal antibody) (antibody, V domains shown)
VH: QVQLQESGPGLVKPSQTLSLTCTVSGYIFTNYPIHWVRQAPGKGLEWVSFIDPGGGYDEPDERFRDRVTISVDTSKNQFSLKLSSVTAADTAVYYCARRGGGYYLDYWGQG
VL: EIVLTQSPATLSLSPGERATLSCRASQDISFFLNWFQQRPGQSPRRLIYYTSRYHSGIPPRFSGSGYGTDFTLTINNIESEDAAYYFCQHGNTLPWTFGQG
notes: Labelled _HC and _LC; Expressed as human IgG from BioAtla's mammalian vector; also called BAP010hum02_HC

binding result [2]: binds
B6: BAP010hum03 (humanized anti-properdin monoclonal antibody) (antibody, V domains shown)
VH: EVQLVQSGAEVKKPGESLRISCKGSGYIFTNYPIHWIRQSPSRGLEWLGFIDPGGGYDEPDERFRDRVTISADKSISTAYLQWSSLKASDTAMYYCARRGGGYYLDYWGQG
VL: DIQMTQSPSSLSASVGDRVTITCRASQDISFFLNWYQQKPGKAPKLLIYYTSRYHSGVPSRFSGSGSGTEFTLTISSLQSEDFAVYYCQHGNTLPWTFGQG
notes: Labelled _HC and _LC; Expressed as human IgG; also called BAP010hum03_HC

binding result [2]: binds
B7: BAP010hum10 (humanized anti-properdin monoclonal antibody) (antibody, V domains shown)
VH: QVQLQESGPGLVKPSQTLSLTCTVSGYIFTNYPIHWVRQATGQGLEWMGFIDPGGGYDEPDERFRDRVTITADKSTSTAYMELSSLRSEDTAVYYCARRGGGYYLDYWGQG
VL: DIQMTQSPSSLSASVGDRVTITCRASQDISFFLNWYQQKPGKAPKLLIYYTSRYHSGIPPRFSGSGYGTEFTFTISSLEAEDAATYYCQHGNTLPWTFGQG
notes: Labelled _HC and _LC; Expressed as human IgG; also called BAP010hum10_HC
